Consider two molecules from patent US20260022175A1 (Chugai, published 2026).

Assay [1] deals with T1, human FcγRIa extracellular domain with C-terminal His-tag (human, UniProt P12314 16-292).
T1 construct: extracellular domain; also called hFcγR Ia; hFcγRIa
The experiment in a line: SPR; KD of 04H1389-G1m/04L1615-k0MT divided by KD of variant. Background: Surface plasmon resonance follows binding to a sensor surface in real time, without labels.

In assay [2] the target is T2, human FcγRIIa H allotype extracellular domain with C-terminal His-tag (human, UniProt P12318 34-217).
T2 construct: extracellular domain; also called hFcγR IIa H
T2 sequence (looked up): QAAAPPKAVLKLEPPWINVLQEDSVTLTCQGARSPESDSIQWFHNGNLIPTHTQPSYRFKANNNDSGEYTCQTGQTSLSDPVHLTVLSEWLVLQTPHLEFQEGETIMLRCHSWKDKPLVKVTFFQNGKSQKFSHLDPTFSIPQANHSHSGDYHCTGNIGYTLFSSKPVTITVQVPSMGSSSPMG
Described as above.

The target in assay [3] is T3, human FcRn (human, UniProt P55899 24-290; P61769 21-119).
T3 construct: Prepared by the method of WO 2010/107110; also called hFcRn
The description is as above.

The target in assay [4] is T4, human FcγRIIa R allotype extracellular domain with C-terminal His-tag (human, UniProt P12318 34-217).
T4 construct: extracellular domain; also called hFcγR IIa R
T4 sequence (looked up): T2 sequence (looked up) with H134R
The description is as above.

Assay [5] concerns the target T5, human FcγRIIIa V allotype extracellular domain with C-terminal His-tag (human, UniProt P08637 17-208).
T5 construct: extracellular domain; also called hFcγR IIIa V
The assay is described as above.

Assay [6] deals with T1, human FcγRIa extracellular domain with …. Nature of the assay: SPR Biacore T200, Ab captured via Fab-kappa, pH 7.4, 25C.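 Also: each FcγR flowed as analyte over the captured antibodies, KD derived by 1:1 Langmuir or steady-state affinity fitting depending on the receptor.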
Protocol: (§1) The interaction between the generated antibodies and human FcγRs was analyzed using Biacore T200. 50 mM Na-Phosphate, 150 mM NaCl, 0.05% Tween20 (pH 7.4) was used as the running buffer, and the assay was performed at 25° C. For the sensor chip, Series S SA (GE Healthcare) chips onto which CaptureSelect Human Fab-kappa Kinetics Biotin Conjugate (Thermo Fisher Scientific) was immobilized were used. The antibodies of interest were captured onto these chips and each FcγR diluted in the running buffer was allowed to interact with them. Chips were regenerated with 10 mM Glycine-HCl (pH 1.5) and 25 mM NaOH, and assay was performed by repeatedly capturing antibodies. The dissociation constants KD (mol/L) for FcγRs of each antibody were calculated using Biacore T200 Evaluation Software 2.0, and using the 1:1 Langmuir binding model for FcγRIa and FcγRIIIa and the steady state affinity model for FcγRIIa. For FcγRIIb, the binding amount of FcγRIIb per unit amount of antibody was calculated by correcting the binding amount of FcγRIIb obtained from the sensorgram obtained by the measurement with the amount of antibody captured onto the chip surface.
Assay [7] deals with T2, human FcγRIIa H allotype extracellular …. Described as above.
Protocol: as §1
Assay [8] deals with T6, human FcγRIIIa F allotype extracellular domain with C-terminal His-tag (human, UniProt P08637 17-208).
T6 construct: extracellular domain; also called hFcγR IIIa F
The description is as above.
Protocol: as §1

Assay [9] addresses T4, human FcγRIIa R allotype extracellular …. The description is as above.
Protocol: as §1
In assay [10] the target is T5, human FcγRIIIa V allotype extracellular …. Described as above.
Protocol: as §1
The target of assay [11] is T3, human FcRn. Nature of the assay: SPR Biacore T200, Ab captured via Fab-kappa, pH 6.0, steady state.
The target of assay [12] is T7, human FcγRIIb extracellular domain with C-terminal His-tag (human, UniProt P31994 43-217).
T7 construct: extracellular domain; also called hFcγR IIb
T7 sequence (looked up): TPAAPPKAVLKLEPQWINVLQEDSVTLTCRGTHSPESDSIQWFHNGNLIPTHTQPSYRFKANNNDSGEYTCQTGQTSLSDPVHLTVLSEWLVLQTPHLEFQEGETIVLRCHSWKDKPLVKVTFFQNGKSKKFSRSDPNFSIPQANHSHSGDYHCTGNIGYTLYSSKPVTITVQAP
Nature of the assay: SPR; binding amount divided by that of 04H1389-G1m/04L1615-k0MT.

In assay [13] the target is T7, human FcγRIIb extracellular domain with …. Nature of the assay: SPR; FcγRIIb bound amount per unit captured Ab.

Substitutions are numbered along the chain they refer to. Names may count otherwise.

T3 sequence (P55899 24-290 limits assumed, chain 1 of 2): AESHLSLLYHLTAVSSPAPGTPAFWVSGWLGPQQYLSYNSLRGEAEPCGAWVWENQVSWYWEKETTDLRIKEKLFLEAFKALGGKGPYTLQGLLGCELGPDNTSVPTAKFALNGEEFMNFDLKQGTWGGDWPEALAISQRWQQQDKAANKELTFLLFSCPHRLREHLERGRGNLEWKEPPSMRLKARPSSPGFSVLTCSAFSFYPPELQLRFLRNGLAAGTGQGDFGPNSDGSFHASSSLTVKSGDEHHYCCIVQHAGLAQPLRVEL
T3 sequence (P61769 21-119 limits assumed, chain 2 of 2): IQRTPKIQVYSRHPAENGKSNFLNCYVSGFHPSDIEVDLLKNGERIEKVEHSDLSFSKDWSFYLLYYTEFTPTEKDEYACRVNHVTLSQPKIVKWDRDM
T1 sequence (P12314 16-292): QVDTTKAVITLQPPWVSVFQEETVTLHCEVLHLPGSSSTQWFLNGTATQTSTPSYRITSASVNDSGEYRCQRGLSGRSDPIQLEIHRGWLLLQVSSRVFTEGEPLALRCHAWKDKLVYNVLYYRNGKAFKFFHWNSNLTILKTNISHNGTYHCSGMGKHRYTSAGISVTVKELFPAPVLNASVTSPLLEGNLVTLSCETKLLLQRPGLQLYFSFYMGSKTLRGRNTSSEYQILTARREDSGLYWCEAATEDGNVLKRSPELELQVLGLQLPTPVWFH
T5 sequence (P08637 17-208 F176V): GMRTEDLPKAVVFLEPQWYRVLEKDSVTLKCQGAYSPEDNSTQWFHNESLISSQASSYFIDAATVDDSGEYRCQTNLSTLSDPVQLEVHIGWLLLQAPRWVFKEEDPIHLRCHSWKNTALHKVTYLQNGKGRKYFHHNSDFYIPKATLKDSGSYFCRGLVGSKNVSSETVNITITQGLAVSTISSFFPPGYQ
T6 sequence (P08637 17-208): as the sequence (P08637 17-208 F176V) above, with V160F counted along it

B1: 04H1389-Ks481/04L1615-k0MT//04H1389-Hs498/04L1615-k0MT (antibody)
heavy 1: EVQLVESGGGLVKPGGSLRLSCAASGFTFSSKTMNWVRQAPGKGLEWVSSISTQSHYIYYAESVKGRFTISRDNAKNSLYLQMNSLRAEDTAVYYCARYGKREDMLWVFDYWGQGTLVTVSSASTKGPSVFPLAPSSKSTSGGTAALGCLVKDYFPEPVTVSWNSGALTSGVHTFPAVLQSSGLYSLSSVVTVPSSSLGTQTYICNVNHKPSNTKVDKRVEPKSCDKTHTCPPCPAPEFQWGPMVFLFPPKPKDVLMISRTPEVTCVVVDVSDEEPEVKFNWYVDGVEVHNAKTKPREEQYNATYRVVSVLPVLHQDWLNGKEYKCKVSNDALPAPEEKTISKAKGQPREPQVYTLPPSREEMTKNQVSLWCLVKGFYPSDIAVEWESNGQPENNYKTTPPVLDSDGSFFLYSKLTVDKSRWQQGNVFSCSVMHEALHAHTTRKELSLSP
heavy 2: B1 heavy 1 with F239L, Q240L, W241A, M244S, D273H, K339E, W371S, L373A, Y412V
light: DIVMTQSPLSLPVTPGEPASISCQGPSTGVGDYNYVHWYQQKPGQAPRLLIYFTSKKPSGVPDRFSGSGSGTDFTLKISRVEAEDVGVYYCQTYAAPLGPMFGQGTKLEIKRTVAAPSVFIFPPSDEQLKSGTASVVCLLNNFYPREAKVQWKVDNALQSGNSQESVTEQDSKDSTYSLSSTLTLSKADYEKHKVYACEVTHQGLSSPVTKSFNRGEC
notes: Heterodimerized antibody with N434A/Y436T/Q438R/S440E
Consider B1, for which the “Relative value to KD between G1m and hFcγRs” value in [1] was determined as 1.6; in [2], 5.6; in [4] it was 5.6; in assay [5], 1500. Moreover, the “Relative value to KD between G1m and hFcRn” value in [3] was 2.8. Besides, the Kd amounted to 0.028 nM in [6]; 190 nM in assay [7]; 1.3 nM in assay [8]; 260 nM in assay [9]; 0.6 nM in assay [10]; 460 nM in assay [11]. In assay [12], this molecule had a Relative binding amount of 2. This molecule displayed a Binding amount in assay [13] of 0.023.

B2: 04H1389-Ks461/04L1615-k0MT//04H1389-Hs443/04L1615-k0MT (antibody, human IgG1, kappa)
heavy 1: B1 heavy 1 with A439N, T441Y, R443Q, E445S
heavy 2: EVQLVESGGGLVKPGGSLRLSCAASGFTFSSKTMNWVRQAPGKGLEWVSSISTQSHYIYYAESVKGRFTISRDNAKNSLYLQMNSLRAEDTAVYYCARYGKREDMLWVFDYWGQGTLVTVSSASTKGPSVFPLAPSSKSTSGGTAALGCLVKDYFPEPVTVSWNSGALTSGVHTFPAVLQSSGLYSLSSVVTVPSSSLGTQTYICNVNHKPSNTKVDKRVEPKSCDKTHTCPPCPAPELLAGPSVFLFPPKPKDVLMISRTPEVTCVVVDVSHEEPEVKFNWYVDGVEVHNAKTKPREEQYNATYRVVSVLPVLHQDWLNGKEYKCKVSNDALPAPEEETISKAKGQPREPQVYTLPPSREEMTKNQVSLSCAVKGFYPSDIAVEWESNGQPENNYKTTPPVLDSDGSFFLVSKLTVDKSRWQQGNVFSCSVMHEALHNHYTQKSLSLSP
light: B1 light
notes: Heterodimerized antibody
For the molecule B2, the “Relative value to KD between G1m and hFcγRs” value is 1.5 in [1], 6.7 in assay [2], 5.9 in assay [4] and 1630 in [5]. Besides, the “Relative value to KD between G1m and hFcRn” value in assay [3] worked out at 0.8. The Kd in assay [6] was 0.03 nM; in [7] it was 160 nM; in [8], 1.2 nM; in [9], 250 nM; in assay [10], 0.56 nM; in assay [11], 1700 nM. Moreover, the Relative binding amount in [12] came to 2.1. The molecule also showed a Binding amount in assay [13] of 0.024.

As a reminder, the Kd is the concentration at which binding is half-saturated.
